# Measurements: paper doi:10.1101/2020.04.25.060004
# B1: IGA3 bt (ssDNA)
# DNA: GGTGGTGGGGGGGGTTGGTAGGGTGTCTTC
# Biological target: insulin (human, UniProt P01308;P01308 25-54;90-110)
# Test: bead-based flow cytometry
# insulin, sequence (P01308 25-54, chain 1 of 2): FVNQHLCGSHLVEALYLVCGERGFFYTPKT
# insulin, sequence (P01308 90-110, chain 2 of 2): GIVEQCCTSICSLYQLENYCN
binder,measurement,value
B1,Kd,12.7 ± 1.1 µM
